Data as given in patent publication US11504441B2, “Radiolabeled compounds targeting the prostate-specific membrane antigen” (PROVINCIAL HEALTH SERVICES AUTHORITY, priority 2019, dated 2022).

What was measured:
[1] = in vivo; parameters: species or system mice; settings: male, NODSCID 1L2RγKO, mouse, iv, total radioactivity
[2] = in vivo; settings: male, NODSCID 1L2RγKO, mouse, iv, total radioactivity, kidney uptake
Method: (§1) LNCaP cell line was obtained from ATCC (LNCaP clone FGC, CRL-1740). […] Cells were cultured in PRM I 1640 medium supplemented with 10% FBS, penicillin (100 U/mL) and streptomycin (100 μg/mL) at 37° C. in a humidified incubator containing 5% CO2. Cells grown to 80-90% confluence were then washed with sterile phosphate-buffered saline (1× PBS pH 7.4) and collected by trypsinization. The collected cells concentration was counted with a Hausser Scientific (Horsham, Pa.) Hemacytometer.
(§2) Imaging and biodistribution experiments were performed using NODSCID 1 L2RγKO male mice. Mice were anesthetized by inhalation with 2% isoflurane in oxygen, and implanted subcutaneously with 1×10^7 LNCaP cells behind left shoulder. Mice were imaged or used in biodistribution studies when the tumor grew up to reach 5-8 mm in diameter during 5-6 weeks.
(§3) PET imaging experiments were conducted using Siemens Inveon micro PET/CT scanner. Each tumor bearing mouse was injected 6-8 MBq of Ga-68 labeled tracer through the tail vein under anesthesia (2% isoflurane in oxygen). The mice were allowed to recover and roam freely in their cage. After 50 min, the mice were sedated again with 2% isoflurane in oxygen inhalation and positioned in the scanner. A 10-min CT scan was conducted first for localization and attenuation correction after segmentation for reconstructing the PET images. Then, a 10-min static PET imaging was performed to determined uptake in tumor and other organs. The mice were kept warm by a heating pad during acquisition. For biodistribution studies, the mice were injected with the radiotracer as described above. The mice was anesthetized with 2% isoflurane inhalation, and euthanized by CO2 inhalation. Blood was withdrawn immediately from the heart, and the organs/tissues of interest were collected. The collected organs/tissues were weighed and counted using a Perkin Elmer (Waltham, Mass.) Wizard2 2480 gamma counter. The uptake in each organ/tissue was normalized to the injected dose using a standard curve, and expressed as the percentage of the injected dose per gram of tissue (% ID/g).
(§4) LNCaP cell line was obtained from ATCC (LNCaP clone FGC, CRL-1740). […] Cells were cultured in PRM I 1640 medium supplemented with 10% FBS, penicillin (100 U/mL) and streptomycin (100 μg/mL) at 37° C. in a humidified incubator containing 5% CO2. Cells grown to 80-90% confluence were then washed with sterile phosphate-buffered saline (1× PBS pH 7.4), and collected by trypsinization. The collected cell concentration was counted with a Hausser Scientific (Horsham, Pa.) Hemacytometer.
(§5) Imaging and biodistribution experiments were performed using NODSCID 1L2RγKO male mice. Mice were anesthetized by inhalation with 2% isoflurane in oxygen, and implanted subcutaneously with 1×10^7 LNCaP cells behind left shoulder. Mice were imaged or used in biodistribution studies when the tumor grew up to reach 5-8 mm in diameter during 5-6 weeks.
(§6) PET imaging experiments were conducted using Siemens Inveon micro PET/CT scanner. Each tumor bearing mouse was injected 6-8 MBq of Ga-68 or F-18 labeled tracer through the tail vein under anesthesia (2% isoflurane in oxygen). The mice were allowed to recover and roam freely in their cage. After 50 min, the mice were sedated again with 2% isoflurane in oxygen inhalation and positioned in the scanner. A 10-min CT scan was conducted first for localization and attenuation correction after segmentation for reconstructing the PET images. Then, a 10-min static PET imaging was performed to determined uptake in tumor and other organs.
(§7) For biodistribution studies, the mice were injected with the radiotracer as described above.

[3] = system: PSMA-expressing LNCaP cancer xenografts; settings: mouse, in vivo
Method: as §1, §2, §3, §4, §5, §6, §7

## COc1ccc(CCCC(=O)NCC(=O)N[C@@H](CCCCNC(=O)CN2CCN(CC(=O)O)CCN(CC(=O)O)CCN(CC(=O)O)CC2)C(=O)NC[C@H]2CC[C@H](C(=O)N[C@@H](Cc3c4ccccc4cc4ccccc34)C(=O)NCCCC[C@H](NC(=O)N[C@@H](CSCC(=O)O)C(=O)O)C(=O)O)CC2)cc1 [177Lu-HTK04048, metal not drawn]
[1]; Adrenal glands uptake
  tissue uptake at 1 h: 3.95 ± 0.34 %ID/g
  tissue uptake at 4 h: 2.1 ± 0.22 %ID/g
  tissue uptake at 24 h: 0.49 ± 0.04 %ID/g
  tissue uptake at 72 h: 0.34 ± 0.03 %ID/g
  tissue uptake at 120 h: 0.37 ± 0.09 %ID/g
[1]; Blood uptake
  tissue uptake at 1 h: 17.7 ± 2.05 %ID/g
  tissue uptake at 4 h: 12.3 ± 1.56 %ID/g
  tissue uptake at 24 h: 0.68 ± 0.11 %ID/g
  tissue uptake at 72 h: 0.12 ± 0.01 %ID/g
  tissue uptake at 120 h: 0.05 ± 0.02 %ID/g
[1]; Bone uptake
  tissue uptake at 1 h: 1.04 ± 0.2 %ID/g
  tissue uptake at 4 h: 0.74 ± 0.09 %ID/g
  tissue uptake at 24 h: 0.11 ± 0.02 %ID/g
  tissue uptake at 72 h: 0.07 ± 0.01 %ID/g
  tissue uptake at 120 h: 0.07 ± 0.01 %ID/g
[1]; Brain uptake
  tissue uptake at 1 h: 0.31 ± 0.02 %ID/g
  tissue uptake at 4 h: 0.18 ± 0.02 %ID/g
  tissue uptake at 24 h: 0.03 %ID/g
  tissue uptake at 72 h: 0.01 %ID/g
  tissue uptake at 120 h: 0.01 %ID/g
[1]; Fat uptake
  tissue uptake at 1 h: 1.32 ± 0.17 %ID/g
  tissue uptake at 4 h: 1 ± 0.13 %ID/g
  tissue uptake at 24 h: 0.15 ± 0.06 %ID/g
  tissue uptake at 72 h: 0.08 ± 0.03 %ID/g
  tissue uptake at 120 h: 0.06 ± 0.03 %ID/g
[1]; Heart uptake
  tissue uptake at 1 h: 4.41 ± 0.22 %ID/g
  tissue uptake at 4 h: 2.99 ± 0.36 %ID/g
  tissue uptake at 24 h: 0.36 ± 0.04 %ID/g
  tissue uptake at 72 h: 0.16 ± 0.01 %ID/g
  tissue uptake at 120 h: 0.1 ± 0.02 %ID/g
[1]; Intestine uptake
  tissue uptake at 1 h: 1.26 ± 0.2 %ID/g
  tissue uptake at 4 h: 1.03 ± 0.1 %ID/g
  tissue uptake at 24 h: 0.49 ± 0.41 %ID/g
  tissue uptake at 72 h: 0.15 ± 0.09 %ID/g
  tissue uptake at 120 h: 0.05 ± 0.02 %ID/g
[1]; Kidneys uptake
  tissue uptake at 1 h: 14.5 ± 3.33 %ID/g
  tissue uptake at 4 h: 12.4 ± 1.36 %ID/g
  tissue uptake at 24 h: 5.06 ± 0.91 %ID/g
  tissue uptake at 72 h: 2.28 ± 0.24 %ID/g
  tissue uptake at 120 h: 1.69 ± 0.58 %ID/g
[1]; Lacrimal uptake
  tissue uptake at 1 h: 0.5 ± 0.05 %ID/g
  tissue uptake at 4 h: 0.32 ± 0.13 %ID/g
  tissue uptake at 24 h: 0.05 ± 0.01 %ID/g
  tissue uptake at 72 h: 0.01 ± 0.01 %ID/g
  tissue uptake at 120 h: 0.01 ± 0.01 %ID/g
[1]; Liver uptake
  tissue uptake at 1 h: 3.95 ± 0.83 %ID/g
  tissue uptake at 4 h: 2.16 ± 0.17 %ID/g
  tissue uptake at 24 h: 0.45 ± 0.04 %ID/g
  tissue uptake at 72 h: 0.26 ± 0.01 %ID/g
  tissue uptake at 120 h: 0.22 ± 0.08 %ID/g
[1]; Lungs uptake
  tissue uptake at 1 h: 9.01 ± 0.91 %ID/g
  tissue uptake at 4 h: 6.35 ± 0.78 %ID/g
  tissue uptake at 24 h: 1.09 ± 0.33 %ID/g
  tissue uptake at 72 h: 0.29 ± 0.05 %ID/g
  tissue uptake at 120 h: 0.15 ± 0.05 %ID/g
[1]; Muscle uptake
  tissue uptake at 1 h: 1.42 ± 0.11 %ID/g
  tissue uptake at 4 h: 1 ± 0.1 %ID/g
  tissue uptake at 24 h: 0.11 ± 0.01 %ID/g
  tissue uptake at 72 h: 0.04 ± 0.01 %ID/g
  tissue uptake at 120 h: 0.05 ± 0.05 %ID/g
[1]; Pancreas uptake
  tissue uptake at 1 h: 1.7 ± 0.17 %ID/g
  tissue uptake at 4 h: 1.21 ± 0.14 %ID/g
  tissue uptake at 24 h: 0.17 ± 0.03 %ID/g
  tissue uptake at 72 h: 0.07 ± 0.01 %ID/g
  tissue uptake at 120 h: 0.04 ± 0.01 %ID/g
[1]; Salivary uptake
  tissue uptake at 1 h: 2.7 ± 0.29 %ID/g
  tissue uptake at 4 h: 2.01 ± 0.17 %ID/g
  tissue uptake at 24 h: 0.42 ± 0.07 %ID/g
  tissue uptake at 72 h: 0.2 ± 0.03 %ID/g
  tissue uptake at 120 h: 0.14 ± 0.02 %ID/g
[1]; Seminal uptake
  tissue uptake at 1 h: 1.14 ± 0.17 %ID/g
  tissue uptake at 4 h: 0.92 ± 0.2 %ID/g
  tissue uptake at 24 h: 0.11 ± 0.03 %ID/g
  tissue uptake at 72 h: 0.06 ± 0.01 %ID/g
  tissue uptake at 120 h: 0.04 ± 0.01 %ID/g
[1]; Spleen uptake
  tissue uptake at 1 h: 2.54 ± 0.6 %ID/g
  tissue uptake at 4 h: 2.1 ± 0.39 %ID/g
  tissue uptake at 24 h: 0.6 ± 0.05 %ID/g
  tissue uptake at 72 h: 0.62 ± 0.14 %ID/g
  tissue uptake at 120 h: 0.92 ± 0.3 %ID/g
[1]; Stomach uptake
  tissue uptake at 1 h: 0.74 ± 0.14 %ID/g
  tissue uptake at 4 h: 0.81 ± 0.04 %ID/g
  tissue uptake at 24 h: 0.89 ± 0.84 %ID/g
  tissue uptake at 72 h: 0.23 ± 0.16 %ID/g
  tissue uptake at 120 h: 0.03 ± 0.01 %ID/g
[1]; Tail uptake
  tissue uptake at 1 h: 3.57 ± 0.35 %ID/g
  tissue uptake at 4 h: 2.72 ± 0.61 %ID/g
  tissue uptake at 24 h: 0.4 ± 0.17 %ID/g
  tissue uptake at 72 h: 0.15 ± 0.03 %ID/g
  tissue uptake at 120 h: 0.19 ± 0.13 %ID/g
[1]; Testes uptake
  tissue uptake at 1 h: 2.25 ± 0.3 %ID/g
  tissue uptake at 4 h: 2.68 ± 0.16 %ID/g
  tissue uptake at 24 h: 0.73 ± 0.32 %ID/g
  tissue uptake at 72 h: 0.34 ± 0.03 %ID/g
  tissue uptake at 120 h: 0.26 ± 0.04 %ID/g
[1]; Thyroid uptake
  tissue uptake at 1 h: 3.79 ± 0.23 %ID/g
  tissue uptake at 4 h: 2.69 ± 0.26 %ID/g
  tissue uptake at 24 h: 0.55 ± 0.07 %ID/g
  tissue uptake at 72 h: 0.31 ± 0.04 %ID/g
  tissue uptake at 120 h: 0.19 ± 0.01 %ID/g
[1]; Tumor uptake
  tissue uptake at 1 h: 15.6 ± 2.98 %ID/g
  tissue uptake at 4 h: 46.5 ± 28.4 %ID/g
  tissue uptake at 24 h: 54.3 ± 10.6 %ID/g
  tissue uptake at 72 h: 66.3 ± 18.7 %ID/g
  tissue uptake at 120 h: 74 ± 35.5 %ID/g

## O=C(O)CC[C@H](NC(=O)N[C@@H](CCCCNC(=O)[C@H](Cc1c2ccccc2cc2ccccc12)NC(=O)C1CCC(CNC(=O)CN2CCN(CC(=O)O)CCN(CC(=O)O)CCN(CC(=O)O)CC2)CC1)C(=O)O)C(=O)O (some centres unmarked) [HTK03041]
[2]
  tissue uptake at 1 h: 170 %ID/g

## O=C(O)CCC[C@H](NC(=O)N[C@@H](CCCCNC(=O)[C@H](Cc1c2ccccc2cc2ccccc12)NC(=O)[C@H]1CC[C@H](CNC(=O)CN2CCN(CC(=O)O)CCN(CC(=O)O)CCN(CC(=O)O)CC2)CC1)C(=O)O)C(=O)O [HTK03149]
[3]
  uptake in kidney and salivary gland compared to HTK03041: significantly decreases the uptake
